Data: patent US20180030151A1 (MOGAM INSTITUTE FOR BIOMEDICAL RESEARCH, published 2018)
Substitutions are numbered along the chain they refer to. Read-outs that look alike come from different tables or passages of the source. Values belong to the binder of their own block, whether it stands above or below them.

How the values were obtained:
Assay in all cases: cell-based or functional assay
[1] = molecular target: T1, recombinant human TFPI (tissue factor pathway inhibitor) (human, UniProt P10646 29-304)
[2] = molecular target: T1, recombinant human TFPI (tissue factor …); remark: listed apart in the source
[3] = molecular target: T1, recombinant human TFPI (tissue factor …); remark: listed apart in the source
[4] = molecular target: T1, recombinant human TFPI (tissue factor …); remark: listed apart in the source
[5] = molecular target: T1, recombinant human TFPI (tissue factor …); remark: listed apart in the source
[6] = molecular target: T1, recombinant human TFPI (tissue factor …); remark: listed apart in the source
[7] = molecular target: T1, recombinant human TFPI (tissue factor …); remark: listed apart in the source
[8] = molecular target: T1, recombinant human TFPI (tissue factor …); remark: listed apart in the source

B1: clone 11 (antibody, V domains shown)
VH: EVQLVESGGGLVKPGGSLRLSCAASGFTFSSYAMNWVRQAPGKGLEWVGTITTGGSYTYYADSVEGRFTISRDNAKNSLYLQMNSLRAEDTAVYYCARQDGNFLMDYWGQGTLVTVSS
VL: DVVMTQTPLSLPVTLGQPASISCKSSPSLLDIDGKTYLNWLQQRPGQSPKRLIYLVSKLDSGVPDRFTGSGSGTDFTLKISRVEAEDVGVYYCWQGTHFPFTFGQGTKVEIKR
effect of inhibiting TFPI, FXa activity assay, Ab 10 nM [1]: ~81% | effect of inhibiting TFPI, FXa activity assay, Ab 20 nM [1]: ~89% | FXa assay % of FXa alone, 2.5 nM Ab, 10 nM TFPI [2]: 7% | FXa assay % of FXa alone, 5 nM Ab, 10 nM TFPI [2]: 29.6% | FXa assay OD, 2.5 nM Ab, 10 nM TFPI [2]: 0.0575 | FXa assay OD, 5 nM Ab, 10 nM TFPI [2]: 0.244 | FXa assay OD, 10 nM Ab, 10 nM TFPI [2]: 0.672 | FXa assay OD, 20 nM Ab, 10 nM TFPI [2]: 0.734

B2: clone A63 (antibody, V domains shown)
VH: B1 VH with G49S, E65Q
VL: B1 VL with P27Q, I32V
FXa assay % of FXa alone, 2.5 nM Ab, 10 nM TFPI [3]: 4.8% | FXa assay % of FXa alone, 5 nM Ab, 10 nM TFPI [3]: 5.3% | FXa assay % of FXa alone, 10 nM Ab, 10 nM TFPI [3]: 4.5% | FXa assay % of FXa alone, 20 nM Ab, 10 nM TFPI [3]: 5.6%

B5: clone 3024 (antibody, V domains shown)
VH: B1 VH with N35S, G49S, E65Q
VL: B1 VL with P27Q, I32S, F99L
FXa assay % of FXa alone, 2.5 nM Ab, 10 nM TFPI [4]: 3.6% | FXa assay % of FXa alone, 5 nM Ab, 10 nM TFPI [4]: 4.2% | FXa assay % of FXa alone, 10 nM Ab, 10 nM TFPI [4]: 6.6% | FXa assay % of FXa alone, 20 nM Ab, 10 nM TFPI [4]: 32.5% | FXa assay OD, 2.5 nM Ab, 10 nM TFPI [4]: 0.026 | FXa assay OD, 20 nM Ab, 10 nM TFPI [4]: 0.234

The remaining lines, values ahead:

FXa assay % of FXa alone, 2.5 nM Ab, 10 nM TFPI [3]: 5.6% | FXa assay % of FXa alone, 10 nM Ab, 10 nM TFPI [3]: 5.3%
B3: clone A25 (antibody, V domains shown)
VH: B1 VH with G49S, Y57H
VL: B1 VL with P27Q, I32R

FXa assay % of FXa alone, 2.5 nM Ab, 10 nM TFPI [3]: 5% | FXa assay % of FXa alone, 20 nM Ab, 10 nM TFPI [3]: 4%
B4: clone A24 (antibody, V domains shown)
VH: B1 VH with S30H, G49S, G54R
VL: B1 VL with P27Q, I32V

effect of inhibiting TFPI, FXa activity assay, Ab 10 nM [1]: ~70% | effect of inhibiting TFPI, FXa activity assay, Ab 20 nM [1]: ~90% | FXa assay % of FXa alone, 2.5 nM Ab, 10 nM TFPI [5]: 6% | FXa assay % of FXa alone, 5 nM Ab, 10 nM TFPI [5]: 10.6% | FXa assay OD, 2.5 nM Ab, 10 nM TFPI [5]: 0.046 | FXa assay OD, 5 nM Ab, 10 nM TFPI [5]: 0.0815 | FXa assay OD, 10 nM Ab, 10 nM TFPI [5]: 0.54 | FXa assay OD, 20 nM Ab, 10 nM TFPI [5]: 0.696 | % of Normalized, TF/FVIIa/FX complex assay, Ab 1.56 nM [6]: 14.5% | % of Normalized, TF/FVIIa/FX complex assay, Ab 3.13 nM [6]: 15% | % of Normalized, TF/FVIIa/FX complex assay, Ab 6.25 nM [6]: 16.3% | % of Normalized, TF/FVIIa/FX complex assay, Ab 12.5 nM [6]: 19.7% | % of Normalized, TF/FVIIa/FX complex assay, Ab 25 nM [6]: 33.4% | % of Normalized, TF/FVIIa/FX complex assay, Ab 50 nM [6]: 100% | % of Normalized, TF/FVIIa/FX complex assay, Ab 100 nM [6]: 103% | A405, TF/FVIIa/FX complex assay, Ab 1.56 nM [7]: 0.134 | A405, TF/FVIIa/FX complex assay, Ab 3.13 nM [7]: 0.138 | A405, TF/FVIIa/FX complex assay, Ab 6.25 nM [7]: 0.15 | A405, TF/FVIIa/FX complex assay, Ab 12.5 nM [7]: 0.181 | A405, TF/FVIIa/FX complex assay, Ab 25 nM [7]: 0.307 | A405, TF/FVIIa/FX complex assay, Ab 50 nM [7]: 0.919 | A405, TF/FVIIa/FX complex assay, Ab 100 nM [7]: 0.943
B6: clone 4017 (antibody, V domains shown)
VH: B1 VH with E65Q, N102Y
VL: B1 VL with P27Q

effect of inhibiting TFPI, FXa activity assay, Ab 10 nM [1]: ~63% | effect of inhibiting TFPI, FXa activity assay, Ab 20 nM [1]: ~77% | FXa assay % of FXa alone, 2.5 nM Ab, 10 nM TFPI [8]: 6.9% | FXa assay % of FXa alone, 5 nM Ab, 10 nM TFPI [8]: 23.2% | FXa assay OD, 2.5 nM Ab, 10 nM TFPI [8]: 0.06 | FXa assay OD, 5 nM Ab, 10 nM TFPI [8]: 0.202 | FXa assay OD, 10 nM Ab, 10 nM TFPI [8]: 0.545 | FXa assay OD, 20 nM Ab, 10 nM TFPI [8]: 0.672
B7: clone 1214 (antibody, V domains shown)
VH: B1 VH with G49S
VL: B1 VL with P27Q, I32V
